Laboratory results taken from the nanobody polyreactivity screen of Harvey et al. (2022).

Assay: yeast display, Sf9 membrane polyspecificity reagent, FACS + sequencing; frameworks hold sequencing errors
How it was run: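 Galactose-induced (36–48 hours) yeast carrying a synthetic nanobody display library were exposed to 10% biotinylated, detergent-solubilized Sf9 membrane reagent at 4 °C for 1 hour. FACS followed streptavidin microbead enrichment, using low and high (top ~1%) gates for expression (anti-HA) and reagent binding (streptavidin). Colony PCR, MiSeq 2 × 250 sequencing and CDR-length filtering followed. Labels for polyreactivity reflect the gate of origin.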

| Sequence | polyreactivity (PSR sort gate) |
| --- | --- |
| QVQLVESGGGLVQAGGSLRLSCAASGRTLGRNAMGWYRQAPGKERELVASISSGGSTNYADSVKGRFTISRDNAKNTVYLQMNSLKPEDTAVYYCNKRYRSLYSSGYDYWGQGTQVTVSS | high polyreactivity |
| QVQLVESGGGLVQAGGSLRLSCAASGRTLGRYAMGWYRPAPGKERELVAAITRRGGITYYADSVKGRFTISRDNAKNTVYLQMNSLKPEDTAVYYCNAVNKSLQPVRDVYPLYRHDYWGQGTQVTVSS | high polyreactivity |
| QVQLVESGGGLVQAGGSLRLSCAASGRTLGRYAMGWYRQAPGKERELVAAINVGGGTTHYADSVKGRFTISRDNAKNTVYLQMNSLKPEDTAVYYCAAYRYTYGDRHAYDYWGQGTQVTVSS | low polyreactivity |
| QVQLVESGGGLVQAGGSLRLSCAASGRTLGVYAMGWYRQAPGKERELVATITSGDGTNYADSVKGRFTISRDNAKNTVYLQMNSLKPVDTAVYYCNAEAKSQWFVYPYWYWPLYDYWGPGTQVTVSS | low polyreactivity |
| QVQLVESGGGLVQAGGSLRLSCAASGRTLHKNVMGWYRQAPGKERELVAAINTGGRTYYADSVKGRFTISRDNAKNTVYLQMNSLKREDTAVYYCAKEGHVNPRPTVGGDYWGQGTQVTVSS | low polyreactivity |
| QVQLVESGGGLVQAGGSLRLSCAASGRTLIFYAMGWYRQAPGKERELVAAISGSGGRTYYADSVKGRFTISRDNAKNTVYLQMNSLKPEDTAVYYCNRRHSYPYDYWGQGTQVTVSS | high polyreactivity |
| QVQLVESGGGLVQAGGSLRLSCAASGRTLIVNTMGWYRQAPGKEREFVAAIFSGASTYYAYSVKGRFTISRDNAKNTVYLQMNSLKPEDTAVYYCAVRNWHLIKYLHGYTRYGYWGQCTQVTVSS | low polyreactivity |
| QVQLVESGGGLVQAGGSLRLSCAASGRTLKINAMGWYRQAPGKERELVARISAGRTYYADSVKGRFTISRDNAKNTVYLQMNSLKPEDTAVYYCARRTNRPPWGFEYWGQGTQVTVSS | high polyreactivity |
| QVQLVESGGGLVQAGGSLRLSCAASGRTLKVYAMGWYRQAPGKERELVAAINNGGSTNYADSVKGRFTISRDNAKNTVYLQMNSLKPEDTAVYYCNAVYYARYRNYTYYYWGQGTQVTVSS | high polyreactivity |
| QVQLVESGGGLVQAGGSLRLSCAASGRTLNRYAMGWYRQAPGKERELVAAIRWRGASTYYADSVKGRFTISRDNAKNTVYLQMNSLKPEDTAVYYCAKRFFASTPNFDYWGQGTQVTVSS | high polyreactivity |
| QVQLVESGGGLVQAGGSLRLSCAASGRTLPFYAMGWYRQAPGKERELLAAINRSGGSTYYADSVKGRFTISRDNAKNTVSLQMNILKPEDTAVYYGNNVTVPGLGYYPPSYSNGHWGQGTQVSVSS | high polyreactivity |
| QVQLVESGGGLVQAGGSLRLSCAASGRTLPYNAMGWYRQAPGKERELVAAISKRGSSTYYADSVKGRFTISRDNAKNTVYLQMNSLKPEDTAVYYCAKGGSFYYWGQGTQVTVSS | high polyreactivity |
| QVQLVESGGGLVQAGGSLRLSCAASGRTLQTYVMGWYRQPPGKERELVAAITRGGGSTYYADSVKGRFTISRDNAKNTVYLQMNSLKPEDTAVYYCAASALRFNSRFSHWYNYWGQGTQVTVSS | high polyreactivity |
| QVQLVESGGGLVQAGGSLRLSCAASGRTLRINTMGWYRQAPGKERELVADITSSGGSTYYADSVKGRFTISRDNAKNTVYLQMNSLKPEDTAVYYCAADPIDIYYWEFDYLGQGTQVTVSS | low polyreactivity |
| QVQLVESGGGLVQAGGSLRLSCAASGRTLRKYAMGWYRQAPGKERELVAAITWTGGTTYYADSVKWRFTISRDNAKNTVYLQMNSLKPEDTAVYYCATVRSYGYGYDFWGQGTQVTVSS | high polyreactivity |
| QVQLVESGGGLVQAGGSLRLSCAASGRTLRLYAMGWYRPAPGKERELVASITGRGGSTYYADSVKGRFTISRDNAKNTVYLQMNSLKPEDTAVYYCAKLPLSTAMGYWGQGTQVTVSS | low polyreactivity |
| QVQLVESGGGLVQAGGSLRLSCAASGRTLRSYAMGWYRQAPGKERELVARISSGGSTTYADSVKGRFTISRDNAKNTVYLQMNSLKPEDTAVYYCNAQLVYTVYRLRYYHWGQGTQVTVSS | high polyreactivity |
